According to article PMC11035591, “Structural insights into the transporting and catalyzing mechanism of DltB in LTA D-alanylation” (Nature Communications, 2024):

T1: Streptococcus thermophilus DltB (Streptococcus thermophilus), Q5M4V4
T1 chain: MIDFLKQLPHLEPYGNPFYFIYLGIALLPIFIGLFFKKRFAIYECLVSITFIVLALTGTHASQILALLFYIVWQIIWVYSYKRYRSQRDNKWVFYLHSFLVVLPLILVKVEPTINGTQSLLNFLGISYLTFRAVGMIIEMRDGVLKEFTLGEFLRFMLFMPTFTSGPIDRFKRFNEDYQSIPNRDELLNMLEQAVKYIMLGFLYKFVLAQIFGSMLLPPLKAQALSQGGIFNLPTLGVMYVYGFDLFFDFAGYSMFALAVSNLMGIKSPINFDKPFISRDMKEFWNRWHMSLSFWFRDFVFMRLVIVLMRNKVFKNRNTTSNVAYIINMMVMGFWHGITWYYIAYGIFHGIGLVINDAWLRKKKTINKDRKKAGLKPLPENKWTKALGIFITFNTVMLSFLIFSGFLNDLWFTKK

T2: Streptococcus thermophilus DltB (Streptococcus thermophilus, UniProt Q5M4V4 1-415)
T2 construct: the entire chain from Met1 to Lys415 was modelled in the cryo-EM maps ('intact DltB protein'); Homo-tetramer (dimer of dimers) by SEC, cross-linking and cryo-EM; purification also gave oligomer, dimer and monomer fractions; also called WT DltB; DltB tetramer; source: E. coli C41(DE3); purified (Triton X-100 solubilisation, Ni-NTA, Superdex 200 in 0.03% β-DDM); also unpurified in whole cells, on …
T2 sequence (looked up): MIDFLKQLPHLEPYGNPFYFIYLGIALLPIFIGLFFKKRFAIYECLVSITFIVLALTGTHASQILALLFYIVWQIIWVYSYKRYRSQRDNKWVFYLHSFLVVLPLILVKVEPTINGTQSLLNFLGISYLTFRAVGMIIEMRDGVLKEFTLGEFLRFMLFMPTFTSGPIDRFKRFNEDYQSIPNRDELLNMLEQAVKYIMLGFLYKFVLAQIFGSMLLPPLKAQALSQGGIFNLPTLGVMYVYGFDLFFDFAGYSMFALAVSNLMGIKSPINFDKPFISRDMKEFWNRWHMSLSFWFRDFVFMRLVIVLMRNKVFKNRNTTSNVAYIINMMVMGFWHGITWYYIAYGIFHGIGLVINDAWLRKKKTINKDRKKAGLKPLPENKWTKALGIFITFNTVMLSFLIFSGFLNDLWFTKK


Tests used:
[1] = target: T1, Streptococcus thermophilus DltB …; test: cryo-EM structure; apo DltB tetramer, about 10 mg/mL in β-DDM; 3.42 Å; details: remark: other sources report otherwise
[2] = target: T1, Streptococcus thermophilus DltB …; test: cryo-EM structure; DltB tetramer (10 mg/mL) incubated with purified DltC (1:1 ratio) for 30 min; 3.50 Å; details: remark: other sources report otherwise
[3] = target: T1, Streptococcus thermophilus DltB …; test: cryo-EM structure; DltB tetramer (10 mg/mL) incubated with the inhibitor m-AMSA (1:3 ratio) for 30 min; 3.23 Å; details: remark: other sources report otherwise
[4] = target: T1, Streptococcus thermophilus DltB …; test: SEC; membrane with overexpressed DltB (wild type or mutant) mildly solubilised with 0.25% β-DDM, Superdex 200; fractions analysed by western blot (anti-His); details: remark: other sources report otherwise
[5] = target: T2, Streptococcus thermophilus DltB; test: cryo-EM structure; DltB tetramer (10 mg/mL) incubated with purified DltC (1:1 ratio) for 30 min; 3.50 Å; details: both partners purified

Row | stoichiometry N [1] | stoichiometry N [2] | stoichiometry N [3] | stoichiometry N [4] | binding result [5] | Binder
1 | 4 | 4 | 4 | 4 | – | Streptococcus thermophilus DltB, Q5M4V4 1-415 (enzyme) MIDFLKQLPHLEPYGNPFYFIYLGIALLPIFIGLFFKKRFAIYECLVSITFIVLALTGTHASQILALLFYIVWQIIWVYSYKRYRSQRDNKWVFYLHSFLVVLPLILVKVEPTINGTQSLLNFLGISYLTFRAVGMIIEMRDGVLKEFTLGEFLRFMLFMPTFTSGPIDRFKRFNEDYQSIPNRDELLNMLEQAVKYIMLGFLYKFVLAQIFGSMLLPPLKAQALSQGGIFNLPTLGVMYVYGFDLFFDFAGYSMFALAVSNLMGIKSPINFDKPFISRDMKEFWNRWHMSLSFWFRDFVFMRLVIVLMRNKVFKNRNTTSNVAYIINMMVMGFWHGITWYYIAYGIFHGIGLVINDAWLRKKKTINKDRKKAGLKPLPENKWTKALGIFITFNTVMLSFLIFSGFLNDLWFTKK
2 | – | – | – | – | binds | Streptococcus thermophilus DltC (natural protein, DltC, D-alanyl carrier protein, Streptococcus thermophilus; Used without the 4'-phosphopantetheine (Ppant) modification on Ser35; Modified pET28a vector with a TEV cleavage site; also called DltC-ST; source: E. coli BL21(DE3), purified (Ni column, TEV cleavage, Resource Q)) MDVKAEVIEIIDELFMEDVSDMMDEDLFDAGVLDSMGTVELIVELESRFDIRVPVSEFGRDDWNTANKIVEGVTELRNA
